Test results: patent US7335638B2, “Prevention and treatment of mycoplasma-associated diseases” (priority 2000, dated 2008)

Test system: adenocarcinoma of Walker
Test: Treatment of experimental adenocarcinoma in rats (Walker tumor)
Assay type: in vivo, rat
Conditions: both died after 12 days of treatment; prolactine added to TS, PDTC and plant extract
Text: Malignant neoplasia was induced experimentally by inoculation of 500,000 cells of adenocarcinoma of Walker in the right flank of several rats in order to verify if the use of simultaneous anti-proliferative and anti-oxidative drugs may decrease the growing of the neoplasia and the level of metastases. Usually the animals receiving such inoculation of adecarcinoma cells survived for 10-12 days and presented metastasis to many ganglia, liver and lung. Nine of these animals were inoculated after 7 days of tumor cells with 0.5 ml of trans-sialidase TS (supernatant of culture of T. cruzi) as described in the U.S. patent application Ser. No. 10/086,913, filed Mar. 1, 2002 and with 0.75 mg of PDTC, into the peritoneum every day. The particles containing DNA or RNA prepared from plant extracts (garlic, Ginkgo biloba and tomato) as described above was also administered. All animals received 0.5 ml of garlic extract by subcutaneous route (Table 1 below). The tumors were similar in size for all animals at the beginning of the treatment, i.e. 2.8×2.7 cm.
Rats 1-4 were followed until death. Rats 3 and 4 received 0.5 ml of Ginkgo biloba's extract, every day. The tumors increased slower in all 4 animals receiving plant extracts than the controls. […]
Prolactin and/or growth hormone administration to diminish these effects was also evaluated. […]

B1: prolactine: ovine prolactine from Sigma, neuroendocrine hormone (protein, UniProt P01240 31-229, looked up)
Prolactin: TPVCPNGPGNCQVSLRDLFDRAVMVSHYIHNLSSEMFNEFDKRYAQGKGFITMALNSCHTSSLPTPEDKEQAQQTHHEVLMSLILGLLRSWNDPLYHLVTEVRGMKGVPDAILSRAIEIEEENKRLLEGMEMIFGQVIPGAKETEPYPVWSGLPSLQTKDEDARHSAFYNLLHCLRRDSSKIDTYLKLLNCRIIYNNNC
In the case of B1, the “tumor at necropsy, Rat 4 compared with Rat 1” value is reported as “smaller size of the tumor with less microscopic necrosis”.
